# Experimental data from patent US20240174760A1 (ZHEJIANG NANOMAB TECHNOLOGY CENTER, published 2024).
# Where two headings read alike, the source gives them in different places.
# T1: human BCMA his tag protein (Acrobiosystems, BCA-H522y) (human, UniProt Q02223 1-54)
# T1 construct: Bought protein; also called BCMA/TNFR-His; human recombinant BCMA his tag; not shown: his tag
# T1 sequence (looked up): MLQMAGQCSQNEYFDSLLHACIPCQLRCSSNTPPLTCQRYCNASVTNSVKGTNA
# T2: human BCMA full-length protein on cells (human, UniProt Q02223 1-184)
# T2 construct: whole, on cells; also called CHO-K1/BCMA; BCMA on RPMI8226, Jeko-1, Daudi cells
# T2 sequence (looked up): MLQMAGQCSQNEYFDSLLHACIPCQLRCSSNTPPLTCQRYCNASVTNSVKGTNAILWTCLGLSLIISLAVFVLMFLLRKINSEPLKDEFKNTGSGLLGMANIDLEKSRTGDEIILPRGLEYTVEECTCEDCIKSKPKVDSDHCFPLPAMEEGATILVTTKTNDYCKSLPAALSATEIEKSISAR
# Legend:
# [1] = target: human BCMA his tag protein (Acrobiosystems, BCA-H522y) (human) (UniProt Q02223); experiment: comp. ELISA, competitor biotin-APRIL (ligand signal), Ab 4.875 ug/mL
# [2] = target: human BCMA his tag protein (Acrobiosystems, BCA-H522y) (human) (UniProt Q02223); experiment: comp. ELISA, competitor biotin-BAFF (ligand signal), Ab 1.218 ug/mL
# [3] = target: human BCMA his tag protein (Acrobiosystems, BCA-H522y) (human) (UniProt Q02223); experiment: comp. ELISA, competitor biotin-BAFF (ligand signal), Ab 78 ug/mL
# [4] = target: human BCMA his tag protein (Acrobiosystems, BCA-H522y) (human) (UniProt Q02223); experiment: comp. ELISA, competitor biotin-APRIL (ligand signal), Ab 1.218 ug/mL
# [5] = target: human BCMA his tag protein (Acrobiosystems, BCA-H522y) (human) (UniProt Q02223); experiment: comp. ELISA, competitor biotin-BAFF (ligand signal), Ab 4.875 ug/mL
# [6] = target: human BCMA his tag protein (Acrobiosystems, BCA-H522y) (human) (UniProt Q02223); experiment: comp. ELISA, competitor biotin-APRIL (ligand signal), Ab 78 ug/mL
# [7] = target: human BCMA his tag protein (Acrobiosystems, BCA-H522y) (human) (UniProt Q02223); experiment: comp. ELISA, competitor biotin-APRIL (ligand signal), Ab 19.5 ug/mL
# [8] = target: human BCMA his tag protein (Acrobiosystems, BCA-H522y) (human) (UniProt Q02223); experiment: comp. ELISA, competitor biotin-BAFF (ligand signal), Ab 19.5 ug/mL
# [9] = target: T1, human BCMA his tag protein …; experiment: comp. ELISA, competitor biotin-BAFF (ligand signal), Ab 1.218 ug/mL
# Description: (§1) Plates (Corning) were coated with 2 μg/mL human BCMA his tag protein (Acrobiosystems, BCA-H522y) overnight at 4° C. After blocking and washing, 50 μL diluted antibodies (78 μg/mL, 19.5 μg/mL, 4.875 μg/mL, 1.218 μg/mL) and 50 μL biotin-labeled 1 μg/mL APRIL (Acrobiosystems, APL-H82F5) or 1.25 μg/mL BAFF (Acrobiosystems, BAF-H82F3) ligand were added to each well, and incubated at 37° C. for 1 hour. After washing 3 times, 100 μL HRP-labeled streptavidin (Biolegend, 405210) diluted 1:2000 was added to each well, and incubated at 37° C. for 30 minutes. After washing, 100 μL TMB substrate (Abeam, ab171524) was added to each well and developed for 5 minutes and the reaction was stopped by 3M HCl. The absorbance value at […] was read using a microplate reader (Tecan, SPARK).
# [10] = target: T2, human BCMA full-length protein on cells; experiment: flow cytometry on RPMI8226 cells, anti-human IgG PE [A&B) A]
# Description: The EC50 of the antibody was calculated by fitting the curve.
# [11] = target: T1, human BCMA his tag protein …; experiment: comp. ELISA, competitor biotin-APRIL (ligand signal), Ab 1.218 ug/mL
# Description: as §1
# [12] = target: T1, human BCMA his tag protein …; experiment: comp. ELISA, competitor biotin-APRIL (ligand signal), Ab 78 ug/mL
# Description: as §1
# [13] = target: T2, human BCMA full-length protein on cells; experiment: flow cytometry competition on CHO-K1/BCMA cells; antibody titrated against biotin-APRIL, PE streptavidin readout
# Description: (§2) In a 96-well non-adsorption deep-well plate, the purified antibody and the control antibody were diluted to 1000 nM with DPBS, and then serially diluted to 8 concentration with 3-fold dilution. Biotin-APRIL was diluted to 4 μg/mL with DPBS. 50 μL the antibody diluted in the previous step or DPBS (Blank, Blank-PE tube), respectively, was added to the wells of a non-adsorption 96-well plate having 5×10⁵ CHO-K1/BCMA cells that overexpressed human BCMA, and then the 50 μL diluted APRIL in the previous step was added and mixed, incubated at 4° C. for 40 min. After washing once with pre-cooled DPBS, 150 μL PE Streptavidin (Biolegend, 405210) diluted with DPBS at 1:500 was added to each well, the cells were resuspended, and incubated at 4° C. for 30 min. After 30 minutes, centrifuged at 220 g for 5 minutes at 4° C., the supernatant was discarded, 200 μL pre-cooled DPBS washing solution was added to each well, the cells were resuspended by gently pipetting with a multichannel pipette, centrifuged at 220 g for 5 minutes, the supernatant was discarded, and the washing step was repeated one time. After 2 times of washing, the cells were resuspended in DPBS and detected by a flow analyzer (Beckman, Cytoflex). […]
# [14] = target: T1, human BCMA his tag protein …; experiment: comp. ELISA, competitor biotin-BAFF (ligand signal), Ab 19.5 ug/mL
# Description: as §1
# [15] = target: T1, human BCMA his tag protein …; experiment: comp. ELISA, competitor biotin-BAFF (ligand signal), Ab 78 ug/mL
# Description: as §1
# [16] = target: T2, human BCMA full-length protein on cells; experiment: flow cytometry competition on CHO-K1/BCMA cells; antibody titrated against biotin-APRIL, PE streptavidin readout; remark: listed apart in the source
# Description: as §2
# [17] = target: T1, human BCMA his tag protein …; experiment: comp. ELISA, competitor biotin-BAFF (ligand signal), Ab 4.875 ug/mL
# Description: as §1
# [18] = target: T1, human BCMA his tag protein …; experiment: comp. ELISA, competitor biotin-APRIL (ligand signal), Ab 19.5 ug/mL
# Description: as §1
# [19] = target: T1, human BCMA his tag protein …; experiment: comp. ELISA, competitor biotin-APRIL (ligand signal), Ab 4.875 ug/mL
# Description: as §1
Molecule,OD450 [1] [OD450],OD450 [2] [OD450],OD450 [3] [OD450],OD450 [4] [OD450],OD450 [5] [OD450],OD450 [6] [OD450],OD450 [7] [OD450],OD450 [8] [OD450],OD450 [9] [OD450],EC50 [10] [nM],OD450 [11] [OD450],OD450 [12] [OD450],IC50 [13] [nM],OD450 [14] [OD450],OD450 [15] [OD450],IC50 [16] [nM],OD450 [17] [OD450],OD450 [18] [OD450],OD450 [19] [OD450]
Isotype-2 (antibody),3.07,3.38,3.24,2.89,3.29,3.04,2.99,3.28,–,–,–,–,–,–,–,–,–,–,–
"BMK1 (scFv, also called positive control antibody; BMK control antibody) scFv: DIVLTQSPASLAVSLGKRATINCRASESVSVIGAHLIHWYQQKPGQPPKLLIYLASNLETGVPARFSGSGSGTDFTLTISSLQAEDAAIYYCLQSRIFPRTFGGGTKLEIKGSTSGSGKPGSGEGSTKGQVQLVQSGSELKKPGASVKVSCKASGYTFTDYSINWVRQAPGQGLEWMGWINTETREPAYAYDFRGRFVFSLDTSVSTAYLQISSLKAEDTAVYYCARDYSYAMDYWGQGTLVTVSS",–,–,–,–,–,–,–,–,3.39,5.7,3.1,0.05,81.8,0.31,0.03,89.6,3.32,0.31,2.9
